# From the nanobody polyreactivity screen of Harvey et al. (2022)
# Test: yeast display, Sf9 membrane polyspecificity reagent, FACS + sequencing; frameworks hold sequencing errors
# Summary of the method: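 Nanobodies from a synthetic yeast display library (Saccharomyces cerevisiae BJ5465), induced 36–48 hours with galactose, were stained 1 hour at 4 °C with 10% biotinylated, detergent-solubilized Sf9 membrane reagent, enriched on streptavidin microbeads, then FACS-sorted. Anti-HA (expression) and streptavidin (reagent binding) fluorescence set low and high (top ~1%) gates. Polyreactivity labels come from the gate of origin. Genes were colony-PCR amplified, MiSeq 2 × 250 sequenced and filtered by CDR length.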
row,Sequence,polyreactivity (PSR sort gate)
1,QVQLVESGGGLVQAGGSLRLSCAASGFTFNYYAMGWYRQAPGKERELVAAISRSGGSTSYADSVKGRFTISRDNAKNTVYLQMNSLKPEDTAVYYCNAVRAIYRYDYWGQGTQVTVSS,high polyreactivity
2,QVQLVESGGGLVQAGGSLRLSCAASGFTFPDYAMGWYRQAPAKERELVAVITSGGSTYYADSVKGRFTISRDNAKNTVYLQMNSLKPEDTAVYYCATDFWDDDVEQRYDYWGQGTQVTVSS,low polyreactivity
3,QVQLVESGGGLVQAGGSLRLSCAASGFTFPDYAMGWYRQAPGKERELVAGISSTGDSTYYADSVKGRITISRDNAKNTVYLQMNSLKPEDTAVYYCNAAQERPIIILFSKYDYCGQGTQVTVSS,low polyreactivity
4,QVQLVESGGGLVQAGGSLRLSCAASGFTFPFYAMGWYRPAHRKERELVAAITASGGSTYYADSVKGRFTISRDNAKYTVYLQMNSLKPEDTAVYYCATSIYRGYYYWGQGTQVTVSS,high polyreactivity
5,QVQLVESGGGLVQAGGSLRLSCAASGFTFPGYTMGRYRQAPGKERELVAAITWSGGRTYYADSVKGRFTITRDNAKNTVYLQMNSLKPEDTEVYYCAANFGAFYGNRDYWGQGTQVTVSS,high polyreactivity
6,QVQLVESGGGLVQAGGSLRLSCAASGFTFPKYAMGWYRQSPGKERELVAGITNGGSTFYADSVKGRFTISRDNAKNTVYLQMNSLKPEDPAVYYCAASGRLSLGGRFYDLGLSYDYWGQGTQVTVSS,low polyreactivity
7,QVQLVESGGGLVQAGGSLRLSCAASGFTFPLYAMGWYRQAPGKERELVAAIRSSGGSTYYADSVKGRFTISRDNAKNTVYLQMNSLKPEDTAVYYCAKVRYTRRLDTYYYWGQGTQVTVSS,high polyreactivity
8,QVQLVESGGGLVQAGGSLRLSCAASGFTFPNYAMGWSRQAPGKERELVAAITSGGGRTNYSDSVKGRFTISRDTAKNTVYLQMNSLKPEDTAVYYCAAEYRYDYRVYSHLHVWRYDYWGQGTQVTVSS,low polyreactivity
9,QVQLVESGGGLVQAGGSLRLSCAASGFTFPNYDMGWYRQAPGKERELVAAITSGGGRTNYADSVKGRFTISRDNAKNTVYFQMNSLKPEDTSVYFCAKTRVRGSEFGYWGQGTQLTVSS,low polyreactivity
10,QVQLVESGGGLVQAGGSLRLSCAASGFTFPPYAMGWYRQAPGKERELVAAITSSGGRTYYADSVKGRFTISRDNAKNTVYLQMNSLKPEDTAVYYCAAYGRFARMNYWGQGTQVTVSS,high polyreactivity
11,QVQLVESGGGLVQAGGSLRLSCAASGFTFPRNAMGWYRQAPGKERELVAAISRGGGGTYYADSVKGRFTISRDNAKNTVYLQMNSLKPEDTAVYYFNAVYPGGSYKYDYWVQGTQVTVSS,high polyreactivity
12,QVQLVESGGGLVQAGGSLRLSCAASGFTFPRYAMGWYRQAPGKERELVAAIRRRGGSTYYADSVKGRFTISRDNAKNTVYLQMNSLKPEDTAVYYCATYNGVKGEASFDYWGQGTQVTVSS,high polyreactivity
13,QVQLVESGGGLVQAGGSLRLSCAASGFTFPRYAMGWYRQAPGKERELVAAITSGDRTYYADSVKGRFTISRDNAKNTVYLQMNSLKPEDTAVYYCARVPDTEGEYWGQGTQVTVSS,high polyreactivity
14,QVQLVESGGGLVQAGGSLRLSCAASGFTFPSYAMGWYRQAPGKERELVAVISWGGTSTYYADSVKGRFTISRDNAKNTVYLQMNSLKPEDTAVYYCATTRRVPGEYWGQGTQVTVSS,high polyreactivity
15,QVQLVESGGGLVQAGGSLRLSCAASGFTFPSYAMGWYRQAPGNERELVAVLSRRGGSTYYADSVKGRFTISRDNAKNTVYLQMNSLKPEDTAVYYCAADFRYYLTTRFNYWGQGTQVTVSS,high polyreactivity
16,QVQLVESGGGLVQAGGSLRLSCAASGFTFPVYGMGWYRQAPGKERELVAAISSRGGNTYYADSVKGRFTISRDNAKNTVYLQMNSLKPEDTAVYYCAAGGITYTGDDYWGQGTQVTVSS,high polyreactivity
17,QVQLVESGGGLVQAGGSLRLSCAASGFTFPWNVMGGYRQAPGKERELVAAITYDGGGTYADSVKGRFTISRDNAKNTVYLQMNSLKPEDTAVYYCNADLIYGEEYDYWGQGTQVTVSS,low polyreactivity
18,QVQLVESGGGLVQAGGSLRLSCAASGFTFPWYAMGWYRQAPGKERELVAAINTGGSTYYADSVKGRFTISRDNAKNTVYLQMNSLKPEDTAVYYCATLGRYRYLNTYYWGSHDYWGQGTQVTVSS,high polyreactivity
19,QVQLVESGGGLVQAGGSLRLSCAASGFTFPWYTMGWYRQAPGKERELVAAINSRGGSTYYADSVKGRFTISRDNAKNTVYLQMNSLKPEDTAVYYCATRSFGRMDYWGQGTQVTVSS,high polyreactivity
20,QVQLVESGGGLVQAGGSLRLSCAASGFTFPYYAMGWSRQAPGKERELVAAITSSGTITYYADSVKGRFTISRDNAKNTVYLQMNSLKPEDTAVYYCAARFSSTRYLQWYYYWGQGTQVTVSS,high polyreactivity
21,QVQLVESGGGLVQAGGSLRLSCAASGFTFPYYAMGWYRQAPGKERELVAAISKSGGSTYYADSVKGRFTISRDNAKNTVYLQMNSLKPEDTAVYYCAAQGGSKYRGYYYWGQGTQVTVSS,high polyreactivity
22,QVQLVESGGGLVQAGGSLRLSCAASGFTFPYYAMGWYRQAPGKERELVAAISWSGGSTNYADSVKGRFTISRDNAKNTVYLQMNSLIPEDTAVYYCATLPGYSMDFWGQGSQVTVSS,high polyreactivity

row,Sequence,polyreactivity (PSR sort gate)
1,QVQLVESGGGLVQAGGSLRLSCAASGFTFPYYAMGWYRQAPGKERELVADITSGGGTNYADSVKGRFTISRDNAKNTVYLQMNSLKPEDTAVYYCAADAYHQGMDYWGQGTQVTVSS,low polyreactivity
2,QVQLVESGGGLVQAGGSLRLSCAASGFTFPYYAMGWYRQSPGKERELVASISRRGGSTYYADSVKGRFTISRDNANNSVYLQMKSLKPEDTAVYYCAADGSRGRWTFDYWGQGTQVTVSS,high polyreactivity
3,QVQLVESGGGLVQAGGSLRLSCAASGFTFQAYAMGWYRQAPGKERELVAAINFSTGRTYYADSVKGRFTISRDNAKNTVYLQMNSLKPEDTAVYYCAADGSWTRSYDFDYWGQGTQLTVSS,high polyreactivity
4,QVQLVESGGGLVQAGGSLRLSCAASGFTFQEYAMGWYRQAPGKERELVAVISSSGVRTYYADSVKGRFTISRDNAKNTVYLQMNSLKPEDTAVYYCAARRYHYIPSTKGNYWGQGTQVTVSS,high polyreactivity
5,QVQLVESGGGLVQAGGSLRLSCAASGFTFQFYAMGWYRQAPGKERELVARISESGSRTYYADSVKGRFTISRDNAKNTVYLQMNSLKPEDTAVYYCAADNPYLGRKFDYWGQGTQVTVSS,high polyreactivity
6,QVQLVESGGGLVQAGGSLRLSCAASGFTFQFYAMGWYRQAPGKESELVASIRSGVGTYYADSVKGRFTISRDNAKNTVYLQMYCVKPEDTAVYYCNAVYNRFSRSYDYWGQGTQVTVSS,high polyreactivity
7,QVQLVESGGGLVQAGGSLRLSCAASGFTFQNYAMGWYSQAPGKERELVAAITYSGGSTYYADSVKGRFTISRDNAKNPVYLQMHSLKPEDTAVYYCAKKASYWWGYEYWGQGTQVTVSS,low polyreactivity
8,QVQLVESGGGLVQAGGSLRLSCAASGFTFQNYVMGWYRQAPGKERELVAAINSGGRTYYADSVKGRFTISRDNAKNTVYLQMNSLKPEDTAVYYCNAVQPATYKYRSHVIEYDYWGQGTQVTVSS,high polyreactivity
9,QVQLVESGGGLVQAGGSLRLSCAASGFTFQYKAMGVYRQAPGQERELVAAISRGGGRTYYADSVKGRFTISRDNAKNTVYLQMNSLKPEDTAVYYCNVLNYSSRHYLFSYDYWGQGTQVTVSS,high polyreactivity
10,QVQLVESGGGLVQAGGSLRLSCAASGFTFQYYAMGWYRQAPGKERELVAAINWSGGRTYYADSVKGRFTISRDNAKNTVYLQMNSLKPEDTAVYYCAATRSFSGGYGYVSYDYWGQGTHVTVSS,high polyreactivity
11,QVQLVESGGGLVQAGGSLRLSCAASGFTFQYYAMGWYRQAPGKERELVAAISRSGGSTYYADSVKGRFTISRDNAKNTVYLQMNSLKPEDTAVYYCNAGRYASGKYDYWGQGTQVTVSS,high polyreactivity
12,QVQLVESGGGLVQAGGSLRLSCAASGFTFQYYAMGWYRQAPGKERELVAAISWSGGRTYYADSVKGRFTISRDIAKNTVYLQLNSLKPEDNAVYYCAASYIVYPARYEDEGDYWGQGTQVTVSS,high polyreactivity
13,QVQLVESGGGLVQAGGSLRLSCAASGFTFQYYAMGWYRQAPGKERELVAAISWSGGRTYYADSVKGRFTISRDNAKNSVYLQMNSLKPVDTAVYYCAAQWYKWAYNNTLLRYYYWGQGTQVTVSS,high polyreactivity
14,QVQLVESGGGLVQAGGSLRLSCAASGFTFQYYAMGWYRQAPGKERELVAVISRSGGRTYYADSVKVRFTISRDNAKNTVYLQMNSLKPEDTAVYYCAALSQPGQSDDKQYDYWGQGTQVTVSS,high polyreactivity
15,QVQLVESGGGLVQAGGSLRLSCAASGFTFQYYAMGWYRQEPGKERELVAAISWGGGSTYYADSVKGRFTISRDNAKNTVYLQMNSLKPEDTAVYYCNAYEYLSAGYDYWGQGTQVTVSS,low polyreactivity
16,QVQLVESGGGLVQAGGSLRLSCAASGFTFQYYVMGWYRQAPGKERELVAAISWSGGSTYYADSVKGRFSISRDNAKNTVYLQMNSLKPEDTAVYYCAAEYDEFLVRFGVWYWFDYWGQGTQVTVSS,high polyreactivity
17,QVQLVESGGGLVQAGGSLRLSCAASGFTFRANAMGWYRQAPGKERELFATISRGGPTNYADSVKGRFTISRDNAKNTVYLQMNSLKPADTAVYYCAASFSPYHTDRGDYWGQGTQVTVSS,high polyreactivity
18,QVQLVESGGGLVQAGGSLRLSCAASGFTFRAYAMGSYRQAPGKERELVAAISTGGGSTYYADSVKGRFTISRDNAKNTVYLQMNSLKPEDTAVYYCNALPQRRYYYWGQGTQVTVSS,high polyreactivity
19,QVQLVESGGGLVQAGGSLRLSCAASGFTFRAYAMGWYRQAPGKERELVAAISSGGGRTYYADSVKGRFTISRDNAKNTVYLQMNSLKPEDTAVYYCAADNYPGTRYDYWGQGTQVTVSS,high polyreactivity
20,QVQLVESGGGLVQAGGSLRLSCAASGFTFRAYAMGWYRQAPGKERELVAGISGSGGRTYYADSVKGRFTISRDNAKNTVYLQMNSLKPEDTAVYYCAAEYRLYGYQYDYWGQGTQVTVSS,high polyreactivity
21,QVQLVESGGGLVQAGGSLRLSCAASGFTFRAYAMGWYRQAPGKERELVATITRSGGSTFYADSVKGRFTISRDNAKNTVYLQMNSLKPEDTAVYYCAAVYRFPCRYAWYKYDDWGQGTQVTVSS,high polyreactivity
